Reference: patent US20120244164A1 (published 2012)
Residue numbers refer to the chain shown, from its start. Names may count otherwise. Each block holds one binder with its values, some of them ahead of it.

Key:
[1] = target: T1, recombinant human c-Met/Fc chimera (R&D systems) (human); assay: SPR (ProteOn), c-Met/Fc captured on anti-human IgG(Fc)
T1 construct: R&D Systems 358-MT/CF, expressed in NS0 cells; also called hc-Met/Fc; hu c-Met/Fc
Description: (§1) Anti-human IgG(Fc) antibody (GE Healthcare) was immobilized on a ProteOn GLC Sensorchip (BioRad) via amine coupling on two ligand lanes at densities of approximately 5300 RU and 2700 RU. […] Regeneration of the surface was performed by an 80 seconds injection of 3M magnesium chloride at 25 μl/min (component of kit BR-1008-39, GE Healthcare).
The experiment was performed as described in Example 5.

cynomolgus c-Met = target: T2, cynomolgus c-Met (cynomolgus monkey, UniProt A0M8R7 25-1381 (Papio anubis entry)); assay: competition FACS: 0.5 nM biotinylated HGF on BAF3 cells with cynomolgus c-Met
T2 construct: also called cynomolgus monkey c-Met; cyno c-Met
T2 sequence (A0M8R7 25-1381 S170N/I621T limits assumed): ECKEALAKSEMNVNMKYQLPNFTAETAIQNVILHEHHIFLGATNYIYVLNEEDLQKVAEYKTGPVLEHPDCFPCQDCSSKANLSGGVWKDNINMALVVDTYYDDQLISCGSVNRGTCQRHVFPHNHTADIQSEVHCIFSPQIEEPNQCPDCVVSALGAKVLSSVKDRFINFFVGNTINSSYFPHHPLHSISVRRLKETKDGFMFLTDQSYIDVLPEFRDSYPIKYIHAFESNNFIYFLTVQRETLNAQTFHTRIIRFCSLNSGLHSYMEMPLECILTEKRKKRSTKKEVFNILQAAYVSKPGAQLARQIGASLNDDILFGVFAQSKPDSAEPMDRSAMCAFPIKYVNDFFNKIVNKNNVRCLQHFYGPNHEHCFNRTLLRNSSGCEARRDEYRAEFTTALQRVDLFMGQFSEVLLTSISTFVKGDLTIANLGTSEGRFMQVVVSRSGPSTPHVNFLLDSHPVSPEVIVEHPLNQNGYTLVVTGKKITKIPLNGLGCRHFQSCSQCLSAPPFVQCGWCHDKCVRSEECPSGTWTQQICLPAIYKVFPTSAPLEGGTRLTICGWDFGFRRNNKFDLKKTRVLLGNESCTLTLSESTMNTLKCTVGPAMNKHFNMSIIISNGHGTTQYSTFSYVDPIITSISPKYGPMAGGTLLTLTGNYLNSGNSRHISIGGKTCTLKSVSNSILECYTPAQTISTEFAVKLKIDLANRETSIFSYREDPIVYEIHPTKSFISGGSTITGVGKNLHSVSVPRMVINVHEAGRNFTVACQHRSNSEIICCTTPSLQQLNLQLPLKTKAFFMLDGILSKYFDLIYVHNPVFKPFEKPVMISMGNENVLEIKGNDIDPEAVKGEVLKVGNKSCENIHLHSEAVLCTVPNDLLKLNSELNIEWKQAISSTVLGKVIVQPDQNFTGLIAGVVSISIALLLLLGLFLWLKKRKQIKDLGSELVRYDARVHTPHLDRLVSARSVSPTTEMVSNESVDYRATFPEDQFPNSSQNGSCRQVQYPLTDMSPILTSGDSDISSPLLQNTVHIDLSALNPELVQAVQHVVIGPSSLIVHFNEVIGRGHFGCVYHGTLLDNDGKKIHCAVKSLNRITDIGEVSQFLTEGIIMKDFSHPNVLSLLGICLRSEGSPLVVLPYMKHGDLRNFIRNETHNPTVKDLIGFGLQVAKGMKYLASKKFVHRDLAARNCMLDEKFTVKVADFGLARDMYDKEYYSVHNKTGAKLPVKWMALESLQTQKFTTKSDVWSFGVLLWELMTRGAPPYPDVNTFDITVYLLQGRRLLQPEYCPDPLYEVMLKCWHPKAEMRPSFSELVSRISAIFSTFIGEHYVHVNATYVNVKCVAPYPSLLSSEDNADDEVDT
Description: Cells were analyzed on a FACSarray flow cytometer as described in earlier examples.

Human c-Met [2] = target: T3, Human c-Met (human, UniProt P08581 25-1390); assay: cell-based or functional assay
T3 sequence (P08581 25-1390 limits assumed): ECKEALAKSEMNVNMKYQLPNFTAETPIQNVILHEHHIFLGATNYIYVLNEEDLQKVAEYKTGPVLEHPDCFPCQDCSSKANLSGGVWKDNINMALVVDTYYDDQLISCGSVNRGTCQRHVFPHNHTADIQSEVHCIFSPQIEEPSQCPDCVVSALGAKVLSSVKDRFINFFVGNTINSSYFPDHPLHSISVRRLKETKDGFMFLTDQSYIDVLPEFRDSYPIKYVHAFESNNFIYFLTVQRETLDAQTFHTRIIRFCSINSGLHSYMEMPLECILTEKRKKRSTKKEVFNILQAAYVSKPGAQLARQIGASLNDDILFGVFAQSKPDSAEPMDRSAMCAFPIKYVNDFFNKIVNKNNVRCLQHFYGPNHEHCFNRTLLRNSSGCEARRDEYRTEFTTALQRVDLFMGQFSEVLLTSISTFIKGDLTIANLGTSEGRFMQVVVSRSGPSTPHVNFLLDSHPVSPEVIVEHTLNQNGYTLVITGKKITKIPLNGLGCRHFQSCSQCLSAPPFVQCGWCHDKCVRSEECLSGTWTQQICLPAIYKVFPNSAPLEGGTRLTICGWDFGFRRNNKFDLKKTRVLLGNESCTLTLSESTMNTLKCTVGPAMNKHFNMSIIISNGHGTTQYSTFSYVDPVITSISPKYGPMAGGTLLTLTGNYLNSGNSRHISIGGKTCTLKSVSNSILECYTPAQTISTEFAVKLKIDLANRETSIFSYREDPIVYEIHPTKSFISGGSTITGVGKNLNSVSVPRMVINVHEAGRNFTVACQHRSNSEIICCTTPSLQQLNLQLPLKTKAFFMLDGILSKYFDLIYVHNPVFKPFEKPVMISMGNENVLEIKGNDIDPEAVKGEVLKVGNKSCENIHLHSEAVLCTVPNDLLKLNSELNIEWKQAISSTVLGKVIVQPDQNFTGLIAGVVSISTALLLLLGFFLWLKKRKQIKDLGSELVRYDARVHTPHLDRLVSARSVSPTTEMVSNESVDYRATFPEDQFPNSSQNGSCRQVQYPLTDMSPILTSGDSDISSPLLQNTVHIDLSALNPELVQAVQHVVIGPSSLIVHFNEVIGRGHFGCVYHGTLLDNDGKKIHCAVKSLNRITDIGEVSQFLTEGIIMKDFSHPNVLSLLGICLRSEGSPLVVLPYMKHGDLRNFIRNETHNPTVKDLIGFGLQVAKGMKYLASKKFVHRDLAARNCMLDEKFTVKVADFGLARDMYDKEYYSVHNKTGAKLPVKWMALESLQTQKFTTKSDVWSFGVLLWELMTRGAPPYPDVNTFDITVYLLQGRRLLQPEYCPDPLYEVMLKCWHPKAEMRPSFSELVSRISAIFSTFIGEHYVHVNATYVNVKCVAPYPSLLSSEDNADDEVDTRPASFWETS

[3] = target: T4, recombinant human CTLA4/Fc chimera (R&D Systems) (human, UniProt P16410 37-162, limits assumed); assay: SPR (ProteOn), CTLA4/Fc captured on anti-human IgG(Fc)
T4 construct: control protein; not shown: Fc part of a bought protein, not described
T4 sequence (P16410 37-162 limits assumed, change not shown): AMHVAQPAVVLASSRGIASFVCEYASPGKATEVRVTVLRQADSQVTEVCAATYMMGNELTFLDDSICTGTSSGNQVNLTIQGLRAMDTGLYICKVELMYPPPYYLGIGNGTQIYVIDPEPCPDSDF
Description: as §1

Human c-Met [4] = target: T3, Human c-Met; assay: cell-based or functional assay; remark: listed apart in the source
[5] = target: T1, recombinant human c-Met/Fc chimera (R&D …); assay: HGF-competition Alphascreen, EXP 2
[6] = target: T1, recombinant human c-Met/Fc chimera (R&D …); assay: HGF-competition Alphascreen, EXP 1
[7] = target: T1, recombinant human c-Met/Fc chimera (R&D …); assay: HGF-competition Alphascreen, EXP 1, second value
[8] = target: T1, recombinant human c-Met/Fc chimera (R&D …); assay: HGF-competition Alphascreen: biotinylated hHGF, human c-Met/Fc
Human c-Met [9] = target: T3, Human c-Met; assay: cell-based or functional assay; remark: listed apart in the source
Human c-Met [10] = target: T3, Human c-Met; assay: cell-based or functional assay; remark: listed apart in the source
[11] = target: T1, recombinant human c-Met/Fc chimera (R&D …); assay: HGF/c-MET competition Alphascreen; reference 5D5 Fab v2
Description: (§2) To this mixture the anti-human Fc conjugated acceptor beads and c-MET/Fc (100 pM final concentration) were added and incubated for 2 hours at RT. Next, streptavidin donor beads were added and the mixture was incubated for 1 additional hour. Fluorescence was measured by reading plates on the EnVision Multilabel Plate Reader using an excitation wavelength of 680 nm and an emission wavelength of 520 nm.

Human c-Met [12] = target: T3, Human c-Met; assay: cell-based or functional assay; remark: listed apart in the source
[13] = target: T1, recombinant human c-Met/Fc chimera (R&D …); assay: HGF/c-MET competition Alphascreen: 100 pM biotinylated hHGF, 100 pM c-MET/Fc
Description: as §2

T1 sequence (chain, as listed by the source mutant limits assumed): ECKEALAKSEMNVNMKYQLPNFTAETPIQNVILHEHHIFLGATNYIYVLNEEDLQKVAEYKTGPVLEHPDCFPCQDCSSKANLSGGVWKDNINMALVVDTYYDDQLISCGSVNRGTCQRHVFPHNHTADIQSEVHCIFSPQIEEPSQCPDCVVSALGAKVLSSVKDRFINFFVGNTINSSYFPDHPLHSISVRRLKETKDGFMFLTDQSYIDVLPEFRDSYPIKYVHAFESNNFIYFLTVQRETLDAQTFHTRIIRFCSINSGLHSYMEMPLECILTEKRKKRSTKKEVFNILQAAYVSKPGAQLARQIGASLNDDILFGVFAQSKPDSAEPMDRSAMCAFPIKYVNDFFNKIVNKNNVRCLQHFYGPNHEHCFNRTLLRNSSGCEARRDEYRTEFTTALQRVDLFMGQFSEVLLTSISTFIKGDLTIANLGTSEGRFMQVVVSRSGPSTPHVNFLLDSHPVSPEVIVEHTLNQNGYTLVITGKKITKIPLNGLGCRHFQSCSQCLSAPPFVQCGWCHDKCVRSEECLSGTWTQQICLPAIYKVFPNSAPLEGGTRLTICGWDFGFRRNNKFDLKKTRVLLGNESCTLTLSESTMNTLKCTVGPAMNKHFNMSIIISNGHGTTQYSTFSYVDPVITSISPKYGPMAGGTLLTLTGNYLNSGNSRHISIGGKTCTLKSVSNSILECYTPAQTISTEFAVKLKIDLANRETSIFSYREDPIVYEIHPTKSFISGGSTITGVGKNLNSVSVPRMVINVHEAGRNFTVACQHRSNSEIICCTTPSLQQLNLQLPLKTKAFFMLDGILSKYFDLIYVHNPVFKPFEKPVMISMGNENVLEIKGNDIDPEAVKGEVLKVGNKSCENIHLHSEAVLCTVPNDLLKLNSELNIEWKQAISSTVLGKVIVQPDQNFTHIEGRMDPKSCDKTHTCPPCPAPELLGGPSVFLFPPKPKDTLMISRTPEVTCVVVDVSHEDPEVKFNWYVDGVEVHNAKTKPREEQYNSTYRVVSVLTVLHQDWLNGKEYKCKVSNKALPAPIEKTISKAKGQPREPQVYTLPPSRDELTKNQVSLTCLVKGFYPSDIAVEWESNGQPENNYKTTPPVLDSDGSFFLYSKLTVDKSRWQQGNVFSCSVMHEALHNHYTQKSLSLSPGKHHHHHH

B1: 04E09 (C22A/C92S) (SEQ ID NO: 25) tagged with 3xFlag-His6 (VHH)
VHH: EVQLVESGGGLVQPGGSLRLSAAASGFILDYYAIGWFRQAPGKEREGVLCIDASDDITYYADSVKGRFTISRDNAKNTVYLQMNSLKPEDTGVYYSATPIGLSSSCLLEYDYDYWGQGTLVTVSSGAADYKDHDGDYKDHDIDYKDDDDKGAAHHHHHH
Kd [1]: 0.0234 nM
koff [1]: 7.9e-05 s⁻¹
kon [1]: 3.37e+06 M⁻¹ s⁻¹
% inhibition (cynomolgus c-Met): 101%
IC50 (cynomolgus c-Met): 0.49 nM
IC50, HGF-dependent c-Met phosphorylation in A549 tumor cells (Human c-Met [2]): 3.8 nM
binding result [3]: no binding

B2: A00790105 tagged with 3xFlag-His6 (VHH)
VHH: DVQLVESGGGLVQPGGSLRLSCAASGFILDYYAIGWFRQAPGKEREGVLCIDASDDITYYADSVKGRFTISRDNSKNTVYLQMNSLRPEDTAVYYCATPIGLSSSCLLEYDYDYWGQGTLVTVSS
notes: also called 04E09 (E1D, A74S, K83R, G88A, Q108L)
IC50, c-Met phosphorylation, EXP 2 (Human c-Met [4]): 2.33 nM
IC50 [5]: 0.061 nM

B6: A007901222 (bispecific antibody)
chain: DVQLVESGGGLVQPGGSLRLSCAASGFILDYYAIGWFRQAPGKEREGVLCIDASDDITYYADSVKGRFTISRDNSKNTVYLQMNSLRPEDTAVYYCATPIGLSSSCLLEYDYDYWGQGTLVTVSSGGGGSGGGSEVQLLESGGGLVQPGGSLRLSCAASGFTFRSFGMSWVRQAPGKGPEWVSSISGSGSDTLYADSVKGRFTISRDNSKNTLYLQMNSLRPEDTAVYYCTIGGSLSRSSQGTLVTVSSA
notes: produced in P. pastoris X33; also called A00790105-9GS-Alb23-A
IC50 [8]: 0.072 nM
IC50, c-Met phosphorylation (Human c-Met [9]): 3.97 nM
IC50, proliferation assay (Human c-Met [9]): 1.37 nM

The remaining lines, values ahead:

IC50 [6]: 0.107 nM
IC50 [7]: 0.046 nM
IC50, c-Met phosphorylation, EXP 1 (Human c-Met [4]): 2.05 nM
IC50, c-Met phosphorylation, EXP 2 (Human c-Met [4]): 2.45 nM
IC50 [5]: 0.071 nM
B3: A00790069 (VHH)
VHH: B2 VHH with D1E
notes: the entry as printed already holds the 3xFLAG-His6 tag; also called 04E09 (A74S, K83R, G88A, Q108L)

Kd [1]: 4.09 nM
koff [1]: 0.000788 s⁻¹
kon [1]: 193000 M⁻¹ s⁻¹
% inhibition (cynomolgus c-Met): 100%
IC50 (cynomolgus c-Met): 20 nM
factor of decrease in potency against parental SEQ ID NO: 7 (cynomolgus c-Met): ~35 fold
binding result [3]: no binding
B4: 04E09 (C50S/C100bG) (SEQ ID NO: 24) tagged with 3xFlag-His6 (VHH)
VHH: B2 VHH with D1E, C50S, S75A, R87K, A92G, C106G

% inhibition (cynomolgus c-Met): 100%
IC50 (cynomolgus c-Met): 0.61 nM
IC50, HGF-dependent c-Met phosphorylation in A549 tumor cells (Human c-Met [2]): 3.1 nM
B5: 04E09 (L49S) (SEQ ID NO: 23) tagged with 3xFlag-His6 (VHH)
VHH: B2 VHH with D1E, L49S, S75A, R87K, A92G

fold improved potency against 5D5 Fab v2, cMET phosphorylation assay (Human c-Met [10]): ~2 fold
fold improved potency against 5D5 Fab v2 [11]: > 5 fold
IC50, cMET phosphorylation assay, A549 cells, +HSA (Human c-Met [12]): 4.2 nM
IC50, cMET phosphorylation assay, A549 cells, -HSA (Human c-Met [12]): 5.41 nM
IC50 [13]: 0.066 nM
B7: A007901219 (A00790105-9GS-Alb23) (bispecific antibody)
chain: DVQLVESGGGLVQPGGSLRLSCAASGFILDYYAIGWFRQAPGKEREGVLCIDASDDITYYADSVKGRFTISRDNSKNTVYLQMNSLRPEDTAVYYCATPIGLSSSCLLEYDYDYWGQGTLVTVSSGGGGSGGGSEVQLLESGGGLVQPGGSLRLSCAASGFTFRSFGMSWVRQAPGKGPEWVSSISGSGSDTLYADSVKGRFTISRDNSKNTLYLQMNSLRPEDTAVYYCTIGGSLSRSSQGTLVTVSS
notes: also called A007901219 (Alb23)
